Article PMC4542545
pKd: −log10 of the molar value.

molecular target: taxol stabilized microtubules assembled from MAP-free tubulin from bovine brain (bovine) (UniProt Q6B856); assay: co-sedimentation; 1.5 μM GFP-tagged TPPP/p25 with increasing concentrations of taxol stabilized MTs, 15 min at 37 °C, centrifugation; GFP fluorescence of pellets and supernatants; apparent Kd (likely a composite of MT binding and TPPP/p25 dimerization or oligomerization)

Substance	pKd
GFP-tagged full-length TPPP/p25 (from UniProt O94811 1-219) (natural protein)	5.84
GFP-tagged TPPP/p25 ΔN(49) (from UniProt O94811 50-219) (domain or fragment)	6.07
GFP-tagged TPPP/p25 ΔC(158) (from UniProt O94811 1-157) (domain or fragment)	5.76
